Measurements: patent US20180105596A1 (ELSALYS BIOTECH, published 2018)

Columns and labels:
Test in all cases: ELISA, ECD coated 1 µg/well, scFv 1 µg/mL, anti-tag-HRP
hTyro 3-ECD = molecular target: T1, hTyro 3-ECD
T1 construct: not the His-Strep tagged ECD m13; also called Recombinant Human Dtk-Fc Chimera (R&D Systems 859-DK-100); not shown: Human Fc, and any linker, of the commercial chimera (R&D Systems 859-DK-100)
T1 chain: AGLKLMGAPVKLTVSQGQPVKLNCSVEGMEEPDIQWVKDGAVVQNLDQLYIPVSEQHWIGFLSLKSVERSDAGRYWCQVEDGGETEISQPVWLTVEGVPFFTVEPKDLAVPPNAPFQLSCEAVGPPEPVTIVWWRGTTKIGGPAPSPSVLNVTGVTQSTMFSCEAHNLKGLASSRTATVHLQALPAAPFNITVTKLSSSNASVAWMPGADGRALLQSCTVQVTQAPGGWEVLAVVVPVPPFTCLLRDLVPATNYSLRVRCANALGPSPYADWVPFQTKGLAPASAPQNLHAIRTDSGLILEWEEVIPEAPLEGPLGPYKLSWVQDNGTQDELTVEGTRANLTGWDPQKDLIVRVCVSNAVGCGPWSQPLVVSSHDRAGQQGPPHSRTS
Procedure: (§1) Extracellular domains of hTyro 3 (859-DK-100), hAxl (154-AL-100) or hMer (891-MR-100) from R&D Systems were coated onto 96-wells microtiter plates (1 μg/well) in PBS and incubated overnight at 4° C. Plates were washed three times with PBS and blocked in PBS/3% BSA for 1 hour at RT. Plates were washed as above and scFvs were added at 1 μg/mL (diluted in PBS) and incubated for 1 hour at RT. Plates were washed three times with PBST (PBS/0.01% Tween-20) and secondary antibody anti-FLAG-HRP was added (Abcam, ab49763, 1/5000 dilution in blocking buffer) for 1 hour at RT. Plates were washed as above with PBST and signal was developed with Ultra-TMB reagent (Thermo Scientific, 34028).

[1] = molecular target: T2, extracellular domain of human Axl, Fc fusion (R&D Systems 154-AL-100) (human, UniProt P30530 26-451)
T2 construct: Bought protein; also called hAxl; hAXL; not shown: Fc of the bought ECD-Fc fusion
T2 sequence: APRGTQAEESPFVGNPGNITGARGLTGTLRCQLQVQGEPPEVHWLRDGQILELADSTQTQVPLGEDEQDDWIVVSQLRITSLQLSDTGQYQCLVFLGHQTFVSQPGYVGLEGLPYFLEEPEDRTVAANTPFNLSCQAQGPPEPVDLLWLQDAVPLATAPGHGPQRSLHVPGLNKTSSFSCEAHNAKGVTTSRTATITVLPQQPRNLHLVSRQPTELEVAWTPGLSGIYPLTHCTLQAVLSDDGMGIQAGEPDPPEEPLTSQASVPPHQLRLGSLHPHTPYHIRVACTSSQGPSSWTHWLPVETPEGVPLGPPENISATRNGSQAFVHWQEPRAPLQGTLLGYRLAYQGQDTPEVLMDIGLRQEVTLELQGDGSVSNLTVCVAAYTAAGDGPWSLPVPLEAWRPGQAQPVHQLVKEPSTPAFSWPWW
Procedure: as §1

[2] = molecular target: T3, extracellular domain of human Mer, Fc fusion (R&D Systems 891-MR-100) (human, UniProt Q12866 21-505)
T3 construct: Bought protein; also called hMer; hMER; not shown: Fc of the bought ECD-Fc fusion
T3 sequence: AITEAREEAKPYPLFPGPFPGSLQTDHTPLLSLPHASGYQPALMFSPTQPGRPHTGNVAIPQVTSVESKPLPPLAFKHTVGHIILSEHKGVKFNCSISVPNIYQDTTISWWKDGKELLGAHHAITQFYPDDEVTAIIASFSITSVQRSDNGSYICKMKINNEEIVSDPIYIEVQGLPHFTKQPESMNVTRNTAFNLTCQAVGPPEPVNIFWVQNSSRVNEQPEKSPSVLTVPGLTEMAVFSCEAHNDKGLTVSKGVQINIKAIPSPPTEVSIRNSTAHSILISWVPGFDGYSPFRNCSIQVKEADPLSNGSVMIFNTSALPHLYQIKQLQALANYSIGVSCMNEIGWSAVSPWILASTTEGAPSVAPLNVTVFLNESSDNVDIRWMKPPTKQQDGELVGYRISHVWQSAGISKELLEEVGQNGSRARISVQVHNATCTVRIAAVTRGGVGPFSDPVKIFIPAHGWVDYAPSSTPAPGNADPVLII
Procedure: as §1

Binder | binding result (hTyro 3-ECD) | binding result [1] | binding result [2]
anti-Tyro3 scFv 2414 (scFv, V domains shown, Tested as a single-chain Fv made in E. coli) VH: EVQLVQSGADVKKPGASLTISCQASGYTFTDYWISWVRQKPGKGLEWMGQINRHASNTMYGPSFQGHVTISADRSTATAYLQWRSLEASDTAMYYCVRSGGATSGGTIPEYYQHWGPGTLVTVSS VL: SYELTQPPSVSVSPGQTARITCSGDALPKKYAYWYQQKSGQAPVLVIYEDWKRASGIPERFSGSSSGTMATLTISGAQVEDEADYYCYSQERKGNYFVFGGGTKLTVL | binds | no binding (tested: 1 µg/mL) | no binding (tested: 1 µg/mL)
anti-Tyro3 scFv 2410 (scFv, V domains shown, Tested as a single-chain Fv made in E. coli) VH: EVQLVQSGADVKKPGASLTISCQASGYTFTDYWISWVRQKPGKGLEWMGQIVPRASRTNYGPSFQGHVTISADRSTATAYLQWRSLEASDTAMYYCVRPYFQTSGGTIPEYYQHWGPGTLVTVSS VL: SYELTQPPSVSVSPGQTARITCSGDALPKKYAYWYQQKSGQAPVLVIYEDEKRASGIPERFSGSSSGTMATLTISGAQVEDEADYYCYSQERNGNYAVFGGGTKLTVL | binds | no binding (tested: 1 µg/mL) | no binding (tested: 1 µg/mL)
anti-Tyro3 scFv 2415 (scFv, V domains shown, Tested as a single-chain Fv made in E. coli) VH: EVQLVQSGADVKKPGASLTISCQASGYTFTDYWISWVRQKPGKGLEWMGQIRGPASATHYGPSFQGHVTISADRSTATAYLQWRSLEASDTAMYYCVRHQQQTSGGTIPEYYQHWGPGTLVTVSS VL: SYELTQPPSVSVSPGQTARITCSGDALPKKYAYWYQQKSGQAPVLVIYEDKKRISGIPERFSGSSSGTMATLTISGAQVEDEADYYCYSTSTGGNYMVFGGGTKLTVL | binds | no binding (tested: 1 µg/mL) | no binding (tested: 1 µg/mL)
anti-Tyro3 scFv 2717 (scFv, V domains shown, Tested as a single-chain Fv made in E. coli) VH: EVQLVQSGADVKKPGASLTISCQASGYTFTDYWISWVRQKPGKGLEWMGEIFLPPSTTVYGPSFQGHVTISADRSTATAYLQWRSLEASDTAMYYCVRQTRLTSGGTIPEYYQHWGPGTLVTVSS VL: SYELTQPPSVSVSPGQTARITCSGDALPKKYAYWYQQKSGQAPVLVIYEDNKRGSGIPERFSGSSSGTMATLTISGAQVEDEADYYCYSKSPEGNYMVFGGGTKLTVL | – | no binding (tested: 1 µg/mL) | no binding (tested: 1 µg/mL)
anti-Tyro3 scFv 2709 (scFv, V domains shown, Tested as a single-chain Fv made in E. coli) VH: EVQLVQSGADVKKPGASLTISCQASGYTFTDYWISWVRQKPGKGLEWMGAISRNGSTTYYGPSFQGHVTISADRSTATAYLQWRSLEASDTAMYYCVRSGGLTSGGTIPEYYQHWGPGTLVPVSS VL: SYELTQPPSVSVSPGQTARITCSGDALPKKYAYWYQQKSGQAPVLVIYEDKKRVSGIPERFSGSSSGTMATLTISGAQVEDEADYYCYSLAVDGNYGVFGGGTKLTVL | binds | no binding (tested: 1 µg/mL) | no binding (tested: 1 µg/mL)
anti-Tyro3 scFv 2711 (scFv, V domains shown, Tested as a single-chain Fv made in E. coli) VH: EVQLVQSGADVKKPGASLTISCQASGYTFTDYWISWVRQKPGKGLEWMGQIRGQHSSTLYGPSFQGHVTISADRSTATAYLQWRSLEASDTAMYYCVRHGASTSGGTIPEYYQHWGPGTLVTVSS VL: SYELTQPPSVSVSPGQTARITCSGDALPKKYAYWYQQKSGQAPVLVIYEDAKRSSGIPERFSGSSSGTMATLTISGAQVEDEADYYCYSLSDSGNYFVFGGGTKLTVL | binds | no binding (tested: 1 µg/mL) | no binding (tested: 1 µg/mL)
anti-Tyro3 scFv 2713 (scFv, V domains shown, Tested as a single-chain Fv made in E. coli) VH: EVQLVQSGADVKKPGASLTISCQASGYTFTDYWISWVRQKPGKGLEWMGRISRHGSQTYYGPSFQGHVTISADRSTATAYLQWRSLEASDTAMYYCVRAGGQTSGGTIPEYYQHWGPGTLVTVSS VL: SYELTQPPSVSVSPGQTARITCSGDALPKKYAYWYQQKSGQAPVLVIYEDHKRASGIPERFSGSSSGTMATLTISGAQVEDEADYYCYSISPAGNYGVFGGGTKLTVL | binds | no binding (tested: 1 µg/mL) | no binding (tested: 1 µg/mL)
anti-Tyro3 scFv 2412 (scFv, V domains shown, Tested as a single-chain Fv made in E. coli) VH: EVQLVQSGADVKKPGASLTISCQASGYTFTDYWISWVRQKPGKGLEWMGRIRPLLSHTMYGPSFQGHVTISADRSTATAYLQWRSLEASDTAMYYCVRSWLATSGGTIPEYYQHWGPGTLVTVSS VL: SYELTQPPSVSVSPGQTARITCSGDALPKKYAYWYQQKSGQAPVLVIYEDAKRVSGIPERFSGSSSGTMATLTISGAQVEDEADYYCYSASANGNYRVFGGGTKLTVL | binds | no binding (tested: 1 µg/mL) | no binding (tested: 1 µg/mL)
